Laboratory results as given in PMC6930079.

Target: YFP-PP1γ (UniProt P36873)
Experiment: live-cell FRET at kinetochores (FRET/CFP intensity ratio)
Settings: HeLa cells, MG132 for 1 hr before imaging, 37°C; Cells = 6, Area KT = 42 (4A) and 50 (WT); parent: est. 1.6; read off a plot

Sequence of UniProt P36873 (P36873 whole entry): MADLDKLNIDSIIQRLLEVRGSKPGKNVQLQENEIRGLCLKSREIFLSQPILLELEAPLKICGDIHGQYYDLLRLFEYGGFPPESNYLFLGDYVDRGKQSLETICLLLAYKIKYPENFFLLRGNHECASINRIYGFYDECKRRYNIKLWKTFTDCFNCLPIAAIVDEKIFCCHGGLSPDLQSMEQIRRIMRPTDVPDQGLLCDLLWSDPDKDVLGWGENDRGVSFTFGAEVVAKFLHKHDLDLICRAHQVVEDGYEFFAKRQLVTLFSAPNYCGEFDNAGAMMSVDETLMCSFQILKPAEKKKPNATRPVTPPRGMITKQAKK

response: 1.2
Substance: Astrin-CFP (WT) (from UniProt Q96R06) 4A (RVMF motif changed to AAAA)
